Assay results published in paper PMC5774749, “Coiled-coil formation of the membrane-fusion K/E peptides viewed by electron paramagnetic resonance” (PLoS ONE, 2018).
*: point of attachment. MTSL = CC1(C)C=C(CS*)C(C)(C)N1[O]

B1: E (peptide)
peptide: Ac-EIAALEKEIAALEKEIAALEKGY-NH2
notes: designed coiled-coil zipper peptide E; printed as Ac-(EIAALEK)3-GY-NH2, the repeat written out three times; unlabelled peptide added to K-SL or SL-K in the room-temperature cw-EPR; the details of these samples are in S1 Text; also called E-peptide; peptide E; source: synthetic peptide
B2: K-SL (peptide)
peptide: Ac-KIAALKEKIAALKEKIAALKEGWC(MTSL)-NH2
SMILES: CC[C@H](C)[C@H](NC(=O)[C@H](CCCCN)NC(C)=O)C(=O)N[C@@H](C)C(=O)N[C@@H](C)C(=O)N[C@@H](CC(C)C)C(=O)N[C@@H](CCCCN)C(=O)N[C@@H](CCC(=O)O)C(=O)N[C@@H](CCCCN)C(=O)N[C@H](C(=O)N[C@@H](C)C(=O)N[C@@H](C)C(=O)N[C@@H](CC(C)C)C(=O)N[C@@H](CCCCN)C(=O)N[C@@H](CCC(=O)O)C(=O)N[C@@H](CCCCN)C(=O)N[C@H](C(=O)N[C@@H](C)C(=O)N[C@@H](C)C(=O)N[C@@H](CC(C)C)C(=O)N[C@@H](CCCCN)C(=O)N[C@@H](CCC(=O)O)C(=O)NCC(=O)N[C@@H](Cc1c[nH]c2ccccc12)C(=O)N[C@@H](CSSCC1=CC(C)(C)N([O])C1(C)C)C(N)=O)[C@@H](C)CC)[C@@H](C)CC
notes: designed coiled-coil zipper peptide K; printed as Ac-(KIAALKE)3-GWC(SL)-NH2, the repeat written out three times; degree of spin labelling around 70%; also called K-peptide, spin labelled at the C-terminus
B3: SL-K (peptide)
peptide: Ac-C(MTSL)KIAALKEKIAALKEKIAALKEGW-NH2
SMILES: CC[C@H](C)[C@H](NC(=O)[C@H](CCCCN)NC(=O)[C@H](CSSCC1=CC(C)(C)N([O])C1(C)C)NC(C)=O)C(=O)N[C@@H](C)C(=O)N[C@@H](C)C(=O)N[C@@H](CC(C)C)C(=O)N[C@@H](CCCCN)C(=O)N[C@@H](CCC(=O)O)C(=O)N[C@@H](CCCCN)C(=O)N[C@H](C(=O)N[C@@H](C)C(=O)N[C@@H](C)C(=O)N[C@@H](CC(C)C)C(=O)N[C@@H](CCCCN)C(=O)N[C@@H](CCC(=O)O)C(=O)N[C@@H](CCCCN)C(=O)N[C@H](C(=O)N[C@@H](C)C(=O)N[C@@H](C)C(=O)N[C@@H](CC(C)C)C(=O)N[C@@H](CCCCN)C(=O)N[C@@H](CCC(=O)O)C(=O)NCC(=O)N[C@@H](Cc1c[nH]c2ccccc12)C(N)=O)[C@@H](C)CC)[C@@H](C)CC
notes: designed coiled-coil zipper peptide K; printed as Ac-C(SL)-(KIAALKE)3-GW-NH2, the repeat written out three times; degree of spin labelling around 80%; also called K-peptide, spin labelled at the N-terminus; Cys-K
B4: E-SL (peptide)
peptide: Ac-EIAALEKEIAALEKEIAALEKGYC(MTSL)-NH2
SMILES: CC[C@H](C)[C@H](NC(=O)[C@H](CCC(=O)O)NC(C)=O)C(=O)N[C@@H](C)C(=O)N[C@@H](C)C(=O)N[C@@H](CC(C)C)C(=O)N[C@@H](CCC(=O)O)C(=O)N[C@@H](CCCCN)C(=O)N[C@@H](CCC(=O)O)C(=O)N[C@H](C(=O)N[C@@H](C)C(=O)N[C@@H](C)C(=O)N[C@@H](CC(C)C)C(=O)N[C@@H](CCC(=O)O)C(=O)N[C@@H](CCCCN)C(=O)N[C@@H](CCC(=O)O)C(=O)N[C@H](C(=O)N[C@@H](C)C(=O)N[C@@H](C)C(=O)N[C@@H](CC(C)C)C(=O)N[C@@H](CCC(=O)O)C(=O)N[C@@H](CCCCN)C(=O)NCC(=O)N[C@@H](Cc1ccc(O)cc1)C(=O)N[C@@H](CSSCC1=CC(C)(C)N([O])C1(C)C)C(N)=O)[C@@H](C)CC)[C@@H](C)CC
notes: designed coiled-coil zipper peptide E; printed as Ac-(EIAALEK)3-GYC(SL)-NH2, the repeat written out three times; degree of spin labelling around 80%; also called E-peptide, spin labelled at the C-terminus; E-Cys
B5: K (peptide)
peptide: Ac-KIAALKEKIAALKEKIAALKEGW-NH2
notes: designed coiled-coil zipper peptide K; printed as Ac-(KIAALKE)3-GW-NH2, the repeat written out three times; unlabelled peptide added to E-SL in the room-temperature cw-EPR; the details of these samples are in S1 Text; also called K-peptide; peptide K; source: synthetic peptide

Key:
SL-K [1] = target: B3; experiment: continuous-wave EPR at room temperature; solution; rotation-correlation time of the spin-labelled peptide with and without the unlabelled partner; described in S1 Text; details: both partners purified
K-SL [2] = target: B2; experiment: as above; details: both partners purified
[3] = target: the molecule itself; experiment: continuous-wave EPR of frozen solution; 120 K, 9.7 GHz; PBS with 20% (wt) glycerol; total peptide 0.3 mM, mixtures equimolar; line broadening against free MTSL, distances from simulation of the spectra
[4] = target: the molecule itself; experiment: DEER (double electron-electron resonance); frozen solution, 40 K, 9.7 GHz; PBS with 20% (wt) glycerol; total peptide 0.3 mM, mixtures equimolar; same samples as for cw-EPR; Tikhonov regularization
K-SL [5] = target: B2; experiment: continuous-wave EPR of frozen solution; 120 K, 9.7 GHz; PBS with 20% (wt) glycerol; total peptide 0.3 mM, mixtures equimolar; line broadening against free MTSL, distances from simulation of the spectra; details: both partners purified
SL-K [6] = target: B3; experiment: DEER (double electron-electron resonance); frozen solution, 40 K, 9.7 GHz; PBS with 20% (wt) glycerol; total peptide 0.3 mM, mixtures equimolar; same samples as for cw-EPR; Tikhonov regularization; details: both partners purified
E-SL = target: B4; experiment: continuous-wave EPR at room temperature; solution; rotation-correlation time of the spin-labelled peptide with and without the unlabelled partner; described in S1 Text; details: both partners purified

## B1
SL-K [1]
  binding result: binds
K-SL [2]
  binding result: binds

## B2
[3]
  binding result: binds

## B3
[4]
  binding result: binds

## B4
K-SL [5]
  binding result: binds
SL-K [6]
  binding result: binds

## B5
E-SL
  binding result: binds
